Experimental data reported in patent US5674838A, “Hirudin derivatives and a process for their preparation” (Hoechst Aktiengesellschaft, priority 1994, dated 1997).
One block for each molecule: values may come before it.

What was measured:
[1] = system: Rhesus monkeys; test: anticoagulatory effect following intravenous administration to Rhesus monkeys; type: in vivo
Text: Amino acid analysis of the product conforms with the composition which is to be expected from the amino acid sequence. Edman sequence analysis indicates 2 N-terminal amino acid residues Leu(1) and Asn(37).

[2] = target: recombinantly obtained desulfato-Tyr63 hirudin (leech (Hirudo medicinalis), made recombinantly in yeast cells)

Molecule: (hirudin 1-63)-Thr(64)-Arg(65)-Arg(66)--OH [Example 3]
anticoagulatory effect (activity compared with starting hirudin) ([1]; intravenous administration to Rhesus monkeys (1 mg/kg), test conditions per Jurgens 1952): virtually identical to that of the starting hirudin

transpeptidation at Tyr63; composition of the crude product by analytical HPLC [2]: 65.2%
Molecule: chymotrypsin (Merck, Darmstadt) (enzyme)

B1: (hirudin 1-36)-Thr, (hirudin 37-65) (protein)
chain 1: LTYTDCTESGQNLCLCEGSNVCGQGNKCILGSDGEKT
chain 2: NQCVTGEGTPKPQSHNDGDFEEIPEEYLQ
anticoagulatory effect (activity compared with starting hirudin) ([1]; intravenous administration to Rhesus monkeys, dose not given): virtually identical to that of the starting hirudin
